Measured values published in paper PMC4238058.

Experiments:
[1] = target: (SH3)3: three repeats of the second Nck SH3 domain, plus the Nck SH2 domain (human)
[2] = target: triply phosphorylated His8-tagged Nephrin cytoplasmic tail (amino acids 1174-1223, Y1183F, Y1210F; pTyr1176, pTyr1193, pTyr1217) (human)
[3] = target: triply phosphorylated TIR3Y (His8-tagged human Nephrin tail with its pTyr sites replaced by the pTyr motif of EPEC Tir) (EPEC | human)

Substance	equilibrium fractional intensity of p-Nephrin clusters (1 uM (SH3)3, 500 nM N-WASP) against peptide concentration, 100 nM to 100 uM; the pair that is blocked: (SH3)3 with p-Nephrin [1]	clustering concentration of (SH3)3 (SH3 module concentration) on bilayers with p-Nephrin and 500 nM N-WASP [2]	clustering concentration of (SH3)3 (SH3 module concentration) on bilayers with p-TIR at 2000 molecules/um^2 and 500 nM N-WASP [3]
TIR-1pY: N-terminal rhodamine labeled single pTyr motif from EPEC Tir protein (peptide)	> 10 µM	–	–
(SH3)3: three repeats of the second Nck SH3 domain, plus the Nck SH2 domain (designed binder)	–	200 nM	100 nM
